According to the supplement of paper PMC10201428:
± gives the standard deviation of the averaged measurements.

Experiments:
[1] = system: VchCAST RNA-guided transposition machinery (E. coli BL21(DE3) host, lacZ target); test: relative integration efficiency (T-LR orientation) vs wild-type transposon end (log2 (normalized fold change)); transposon end mutated: left end; higher = more efficient transposition
Procedure, shortened: (§1)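 Pools of 1549 left-end or 1849 right-end barcoded transposon variants were cloned into a pUC57 mini-transposon donor and co-transformed into E. coli BL21(DE3) with a T7-driven effector plasmid carrying a CRISPR array, tniQ-cas8-cas7-cas6 and tnsA-tnsB-tnsC. Plating used 0.1 mM IPTG at 37°C for 18 h, and input plasmids and genomic integration junctions were PCR-amplified for Illumina sequencing, with two biological output replicates and four reference barcodes. Relative integration efficiency is the log-transformed fold change of output over input barcode abundance, normalised to the reference barcodes.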

[2] = system: VchCAST RNA-guided transposition machinery (E. coli BL21(DE3) host, lacZ target); test: relative integration efficiency (T-RL orientation) vs wild-type transposon end (log2 (normalized fold change)); transposon end mutated: left end; higher = more efficient transposition
Procedure, shortened: as §1

Sequence | relative integration efficiency (log2) [1] | relative integration efficiency (log2) [2]
AATGTTGTTGATGCAACCATAAAGTGATATTTAATAATTATTTATAATCAGCAACTTAACCACAAAACAACCATATATTGATATCTCAACCCCACCAACGCCTGGTCGCGGGGGTGTCCGATCTGATTTCAGCAAAACTACTGCAGTAAGAA | -0.776 ± 1.1 | -2.58 ± 0.89
AATGTTGTTGATGCAACCATAAAGTGATATTTAATAATTATTTATAATCAGCAACTTAACCACAAAACAACCATATATTGATATCTCACAAAAACCAACGCCCTGTCGCGGGCTGTGAATCGAGTATTTCAGCAAAACTACTGCAGTAAGAA | -1.71 ± 0.47 | -2.5 ± 0.88
AATGTTGTTGATGCAACCATAAAGTGATATTTAATAATTATTTATAATCAGCAACTTAACCACAAAACAACCATATATTGATATCTCACAAAAACCAACGCCTGGTCGCGGGGGTGTCCGATCTGATTTCAGCAAAACTACTGCAGTAAGAA | -0.363 ± 1.2 | -2.38 ± 1.1
AATGTTGTTGATGCAACCATAAAGTGATATTTAATAATTATTTATAATCAGCAACTTAACCACAAAACAACCATATATTGATATCTCACAAAACAAAACGCCTGGTCGCGGGGGTGTCCGATCTGATTTCAGCAAAACTACTGCAGTAAGAA | -0.638 ± 1.1 | -2.27 ± 1
AATGTTGTTGATGCAACCATAAAGTGATATTTAATAATTATTTATAATCAGCAACTTAACCACAAAACAACCATATATTGATATCTCACAAAACAACACGCCTGGTCGCGGGGGTGTCCGATCTGATTTCAGCAAAACTACTGCAGTAAGAA | -0.741 ± 1.6 | -2.49 ± 0.9
AATGTTGTTGATGCAACCATAAAGTGATATTTAATAATTATTTATAATCAGCAACTTAACCACAAAACAACCATATATTGATATCTCACAAAACAACCAGCCTGGTCGCGGGGGTGTCCGATCTGATTTCAGCAAAACTACTGCAGTAAGAA | -0.68 ± 0.94 | -2.22 ± 0.9
AATGTTGTTGATGCAACCATAAAGTGATATTTAATAATTATTTATAATCAGCAACTTAACCACAAAACAACCATATATTGATATCTCACAAAACAACCATAAGGGTCGCGGGGGTGTCCGATCTGATTTCAGCAAAACTACTGCAGTAAGAA | -1.56 ± 1 | -1.87 ± 0.93
AATGTTGTTGATGCAACCATAAAGTGATATTTAATAATTATTTATAATCAGCAACTTAACCACAAAACAACCATATATTGATATCTCACAAAACAACCATAAGTGTCGCGGGGGTGTCCGATCTGATTTCAGCAAAACTACTGCAGTAAGAA | -1.82 ± 0.77 | -2.05 ± 0.76
AATGTTGTTGATGCAACCATAAAGTGATATTTAATAATTATTTATAATCAGCAACTTAACCACAAAACAACCATATATTGATATCTCACAAAACAACCATAAGTTGAGCGGGGGTGTCCGATCTGATTTCAGCAAAACTACTGCAGTAAGAA | -1.81 ± 0.51 | -1.32 ± 0.58
AATGTTGTTGATGCAACCATAAAGTGATATTTAATAATTATTTATAATCAGCAACTTAACCACAAAACAACCATATATTGATATCTCACAAAACAACCATAAGTTGATAGGGGGTGTCCGATCTGATTTCAGCAAAACTACTGCAGTAAGAA | -0.256 ± 0.057 | -0.795 ± 0.62
AATGTTGTTGATGCAACCATAAAGTGATATTTAATAATTATTTATAATCAGCAACTTAACCACAAAACAACCATATATTGATATCTCACAAAACAACCATAAGTTGATATGGGGTGTCCGATCTGATTTCAGCAAAACTACTGCAGTAAGAA | -0.611 ± 0.81 | -0.33 ± 0.14
AATGTTGTTGATGCAACCATAAAGTGATATTTAATAATTATTTATAATCAGCAACTTAACCACAAAACAACCATATATTGATATCTCACAAAACAACCATAAGTTGATATGTGAATCGAGTATTTCAGCAAAACTACTGCAGTAAGAAAGTT | -0.00636 ± 0.11 | -0.276 ± 0.26
AATGTTGTTGATGCAACCATAAAGTGATATTTAATAATTATTTATAATCAGCAACTTAACCACAAAACAACCATATATTGATATCTCACAAAACAACCATAAGTTGATATTGGGTGTCCGATCTGATTTCAGCAAAACTACTGCAGTAAGAA | -0.651 ± 0.46 | -0.13 ± 0.053
AATGTTGTTGATGCAACCATAAAGTGATATTTAATAATTATTTATAATCAGCAACTTAACCACAAAACAACCATATATTGATATCTCACAAAACAACCATAAGTTGATATTGTGAATCGAGTATTTCAGCAAAACTACTGCAGTAAGAAAGT | -0.0935 ± 0.19 | -0.306 ± 0.15
AATGTTGTTGATGCAACCATAAAGTGATATTTAATAATTATTTATAATCAGCAACTTAACCACAAAACAACCATATATTGATATCTCACAAAACAACCATAAGTTGATATTTGTGAATCGAGTATTTCAGCAAAACTACTGCAGTAAGAAAG | 0.0663 ± 0.15 | -0.116 ± 0.072
AATGTTGTTGATGCAACCATAAAGTGATATTTAATAATTATTTATAATCAGCAACTTAACCACAAAACAACCATATATTGATATCTCACAAAACAACCATAAGTTGATATTTTGTGAATCGAGTATTTCAGCAAAACTACTGCAGTAAGAAA | 0.169 ± 0.12 | 0.0855 ± 0.0046

Sequence | relative integration efficiency (log2) [1] | relative integration efficiency (log2) [2]
AATGTTGTTGATGCAACCATAAAGTGATATTTAATAATTATTTATAATCAGCAACTTAACCACAAAACAACCATATATTGATATCTCACAAAACAACCATAAGTTGATCGGGGGTGTCCGATCTGATTTCAGCAAAACTACTGCAGTAAGAA | -1.32 ± 0.59 | -1.03 ± 0.49
AATGTTGTTGATGCAACCATAAAGTGATATTTAATAATTATTTATAATCAGCAACTTAACCACAAAACAACCATATATTGATATCTCACAAAACAACCATAAGTTGATTGTGAATCGAGTATTTCAGCAAAACTACTGCAGTAAGAAAGTTA | -0.858 ± 0.1 | -0.574 ± 0.38
AATGTTGTTGATGCAACCATAAAGTGATATTTAATAATTATTTATAATCAGCAACTTAACCACAAAACAACCATATATTGATATCTCACAAAACAACCATAAGTTGCGCGGGGGTGTCCGATCTGATTTCAGCAAAACTACTGCAGTAAGAA | -3.15 ± 1.6 | -1.74 ± 0.81
AATGTTGTTGATGCAACCATAAAGTGATATTTAATAATTATTTATAATCAGCAACTTAACCACAAAACAACCATATATTGATATCTCACAAAACAACCATAAGTTTCGCGGGGGTGTCCGATCTGATTTCAGCAAAACTACTGCAGTAAGAA | -2.11 ± 1.5 | -2.22 ± 0.95
AATGTTGTTGATGCAACCATAAAGTGATATTTAATAATTATTTATAATCAGCAACTTAACCACAAAACAACCATATATTGATATCTCACAAAACAACCATAATGGTCGCGGGGGTGTCCGATCTGATTTCAGCAAAACTACTGCAGTAAGAA | -1.31 ± 0.87 | -1.93 ± 0.81
AATGTTGTTGATGCAACCATAAAGTGATATTTAATAATTATTTATAATCAGCAACTTAACCACAAAACAACCATATATTGATATCTCACAAAACAACCATACTGGTCGCGGGGGTGTCCGATCTGATTTCAGCAAAACTACTGCAGTAAGAA | -0.966 ± 1.7 | -2.24 ± 0.99
AATGTTGTTGATGCAACCATAAAGTGATATTTAATAATTATTTATAATCAGCAACTTAACCACAAAACAACCATATATTGATATCTCACAAAACAACCATCCTGGTCGCGGGGGTGTCCGATCTGATTTCAGCAAAACTACTGCAGTAAGAA | -0.61 ± 0.64 | -1.99 ± 0.82
AATGTTGTTGATGCAACCATAAAGTGATATTTAATAATTATTTATAATCAGCAACTTAACCACAAAACAACCATATATTGATATCTCACAAAACAACCCGCCTGGTCGCGGGGGTGTCCGATCTGATTTCAGCAAAACTACTGCAGTAAGAA | -1.63 ± 2.3 | -2.27 ± 0.81
AATGTTGTTGATGCAACCATAAAGTGATATTTAATAATTATTTATAATCAGCAACTTAACCACAAAACAACCATATATTGATATCTCACAAAACACAACGCCTGGTCGCGGGGGTGTCCGATCTGATTTCAGCAAAACTACTGCAGTAAGAA | -0.789 ± 1.1 | -2.63 ± 1.3
AATGTTGTTGATGCAACCATAAAGTGATATTTAATAATTATTTATAATCAGCAACTTAACCACAAAACAACCATATATTGATATCTCACAAAACCCAACGCCTGGTCGCGGGGGTGTCCGATCTGATTTCAGCAAAACTACTGCAGTAAGAA | -0.934 ± 0.6 | -2.31 ± 0.93
AATGTTGTTGATGCAACCATAAAGTGATATTTAATAATTATTTATAATCAGCAACTTAACCACAAAACAACCATATATTGATATCTCACAAAAGTTGGTATTCAACTATAAAATGTGAATCGAGTATTTCAGCAAAACTACTGCAGTAAGAA | -0.838 ± 0.94 | -2.5 ± 0.79
AATGTTGTTGATGCAACCATAAAGTGATATTTAATAATTATTTATAATCAGCAACTTAACCACAAAACAACCATATATTGATATCTCACAAACAACCATAAGTTGATATTTTTGTGAATCGAGTATTTCAGCAAAACTACTGCAGTAAGAAA | -0.446 ± 0.92 | -1.69 ± 0.68
AATGTTGTTGATGCAACCATAAAGTGATATTTAATAATTATTTATAATCAGCAACTTAACCACAAAACAACCATATATTGATATCTCACAAACACCAACGCCTGGTCGCGGGGGTGTCCGATCTGATTTCAGCAAAACTACTGCAGTAAGAA | -0.664 ± 1.2 | -2.54 ± 0.9
AATGTTGTTGATGCAACCATAAAGTGATATTTAATAATTATTTATAATCAGCAACTTAACCACAAAACAACCATATATTGATATCTCACAACAACCATAAGTTGATATTTTTGTGAATCGAGTATTTCAGCAAAACTACTGCAGTAAGAAAG | -1.51 ± 0.32 | -3.43 ± 0.95
AATGTTGTTGATGCAACCATAAAGTGATATTTAATAATTATTTATAATCAGCAACTTAACCACAAAACAACCATATATTGATATCTCACAACCACCAACGCCTGGTCGCGGGGGTGTCCGATCTGATTTCAGCAAAACTACTGCAGTAAGAA | -0.813 ± 1.4 | -2.63 ± 0.74
